In publication PMC4191397:

Key:
[1] = target: T1, NS3h (NS3 helicase domain) (Dengue virus serotype 2 (infectious …, UniProt O09234 1646-2093)); experiment: competition
[2] = target: T1, NS3h (NS3 helicase domain); experiment: competition; remark: listed apart in the source
[3] = target: T1, NS3h (NS3 helicase domain); experiment: EMSA
[4] = target: T1, NS3h (NS3 helicase domain); experiment: fluorescence titration
[5] = target: T1, NS3h (NS3 helicase domain); experiment: competition; remark: listed apart in the source
[6] = target: T1, NS3h (NS3 helicase domain); experiment: competition; remark: listed apart in the source

UUUUUUUUUUUU (ssRNA) [(U)12]: no binding [1].

AGUUGAGUUGAGUUG (ssRNA) [R15] was tested, and the Ka [2] was 7.4 ± 0.2 10^6 M-1.

AGTTGAGTTGAGTTGAGTTG (ssDNA) [F-p-D20]: no binding [3].

For AGUUGAGUUG (ssRNA) [F-p-R10], the Ka [4] was 11.3 ± 0.1 10^6 M-1.

With AGUUGAGUUGAGUUGAGU (ssRNA) [R18] the Ka [2] was 11.5 ± 0.3 10^6 M-1.

AGUUGAGUUG (ssRNA) [R10] was tested, and the Ka [2] was 1.69 ± 0.04 10^6 M-1.

For AGUUGAGUUGAGUUGAGUUG (ssRNA) [R20], the Ka [5] was 16.7 ± 0.7 10^6 M-1 and the Ka [6] was 0.6 ± 0.1 10^6 M-1.

For AGUUGAGUUGAG (ssRNA) [R12], the Ka [2] was 2.64 ± 0.06 10^6 M-1.

AGUUGAGUUGAG (ssRNA) [F-p-R12] was tested, and the Ka [4] was 20.8 ± 0.5 10^6 M-1.
